# Measurements as given in PMC4315173 (The Biochemical journal, 2014).
# Legend:
# [1] = target: endogenous PDE4D (mouse brain) (mouse (endogenous in brain)) (UniProt Q01063); experiment: co-IP
# [2] = target: the molecule itself; experiment: SEC + other: sucrose density gradient centrifugation
# Chain of endogenous long PDE4A variants (mouse brain) (O89084 whole entry, change not shown): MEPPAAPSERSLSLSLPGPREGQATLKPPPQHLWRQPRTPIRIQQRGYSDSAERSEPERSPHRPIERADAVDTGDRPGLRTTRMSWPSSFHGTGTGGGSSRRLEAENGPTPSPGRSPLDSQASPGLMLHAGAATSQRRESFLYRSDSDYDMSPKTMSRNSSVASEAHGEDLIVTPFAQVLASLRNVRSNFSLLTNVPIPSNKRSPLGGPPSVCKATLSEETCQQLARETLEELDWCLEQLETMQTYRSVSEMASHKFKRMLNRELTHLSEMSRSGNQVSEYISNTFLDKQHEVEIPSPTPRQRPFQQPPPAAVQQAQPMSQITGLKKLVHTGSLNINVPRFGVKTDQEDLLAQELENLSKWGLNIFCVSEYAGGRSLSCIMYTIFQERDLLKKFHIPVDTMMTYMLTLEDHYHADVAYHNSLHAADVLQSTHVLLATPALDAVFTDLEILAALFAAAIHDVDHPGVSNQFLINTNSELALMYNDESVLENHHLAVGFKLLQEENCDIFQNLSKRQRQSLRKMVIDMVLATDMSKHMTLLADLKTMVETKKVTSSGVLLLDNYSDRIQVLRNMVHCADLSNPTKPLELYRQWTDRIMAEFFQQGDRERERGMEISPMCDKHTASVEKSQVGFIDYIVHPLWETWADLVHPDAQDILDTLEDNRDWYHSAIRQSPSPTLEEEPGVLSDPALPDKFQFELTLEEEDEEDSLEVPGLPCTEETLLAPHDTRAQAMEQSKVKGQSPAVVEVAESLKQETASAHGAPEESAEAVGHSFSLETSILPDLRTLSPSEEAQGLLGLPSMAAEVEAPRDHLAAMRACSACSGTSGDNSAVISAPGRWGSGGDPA
# Chain of endogenous PDE4D (mouse brain) (mouse (endogenous in brain)) (Q01063 whole entry): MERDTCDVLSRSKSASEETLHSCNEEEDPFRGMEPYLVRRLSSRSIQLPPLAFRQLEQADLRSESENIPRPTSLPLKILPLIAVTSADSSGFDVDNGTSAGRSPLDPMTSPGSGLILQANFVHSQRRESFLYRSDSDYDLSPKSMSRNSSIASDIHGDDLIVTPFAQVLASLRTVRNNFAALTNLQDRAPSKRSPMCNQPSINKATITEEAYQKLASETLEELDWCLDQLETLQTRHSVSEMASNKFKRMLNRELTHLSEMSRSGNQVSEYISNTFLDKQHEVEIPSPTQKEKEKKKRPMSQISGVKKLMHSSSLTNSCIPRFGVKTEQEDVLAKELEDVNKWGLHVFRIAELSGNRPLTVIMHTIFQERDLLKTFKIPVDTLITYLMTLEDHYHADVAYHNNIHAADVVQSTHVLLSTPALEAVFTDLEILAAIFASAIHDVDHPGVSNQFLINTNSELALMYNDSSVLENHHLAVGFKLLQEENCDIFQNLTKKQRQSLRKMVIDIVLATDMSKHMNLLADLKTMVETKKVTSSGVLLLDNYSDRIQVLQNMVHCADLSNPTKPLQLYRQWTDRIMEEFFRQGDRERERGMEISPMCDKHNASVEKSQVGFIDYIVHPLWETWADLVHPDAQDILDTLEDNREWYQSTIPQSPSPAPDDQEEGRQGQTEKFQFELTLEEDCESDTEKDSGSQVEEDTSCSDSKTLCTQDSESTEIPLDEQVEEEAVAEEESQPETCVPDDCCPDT
percent of the total PDE4A found in complex with PDE4D [1],Molecule,stoichiometry N [2]
2%,endogenous long PDE4A variants (mouse brain) (from UniProt O89084 1-844) (natural protein),
,"PDE4A4 (natural protein, human, UniProt P27815-1 1-886, looked up) MEPPTVPSERSLSLSLPGPREGQATLKPPPQHLWRQPRTPIRIQQRGYSDSAERAERERQPHRPIERADAMDTSDRPGLRTTRMSWPSSFHGTGTGSGGAGGGSSRRFEAENGPTPSPGRSPLDSQASPGLVLHAGAATSQRRESFLYRSDSDYDMSPKTMSRNSSVTSEAHAEDLIVTPFAQVLASLRSVRSNFSLLTNVPVPSNKRSPLGGPTPVCKATLSEETCQQLARETLEELDWCLEQLETMQTYRSVSEMASHKFKRMLNRELTHLSEMSRSGNQVSEYISTTFLDKQNEVEIPSPTMKEREKQQAPRPRPSQPPPPPVPHLQPMSQITGLKKLMHSNSLNNSNIPRFGVKTDQEELLAQELENLNKWGLNIFCVSDYAGGRSLTCIMYMIFQERDLLKKFRIPVDTMVTYMLTLEDHYHADVAYHNSLHAADVLQSTHVLLATPALDAVFTDLEILAALFAAAIHDVDHPGVSNQFLINTNSELALMYNDESVLENHHLAVGFKLLQEDNCDIFQNLSKRQRQSLRKMVIDMVLATDMSKHMTLLADLKTMVETKKVTSSGVLLLDNYSDRIQVLRNMVHCADLSNPTKPLELYRQWTDRIMAEFFQQGDRERERGMEISPMCDKHTASVEKSQVGFIDYIVHPLWETWADLVHPDAQEILDTLEDNRDWYYSAIRQSPSPPPEEESRGPGHPPLPDKFQFELTLEEEEEEEISMAQIPCTAQEALTAQGLSGVEEALDATIAWEASPAQESLEVMAQEASLEAELEAVYLTQQAQSTGSAPVAPDEFSSREEFVVAVSHSSPSALALQSPLLPAWRTLSVSEHAPGLPGLPSTAAEVEAQREHQAAKRACSACAGTFGEDTSALPAPGGGGSGGDPT",2
,"PDE4D5 (natural protein, rat, UniProt P14270-8 1-745, looked up) MAQQTTSPDTLTVPEVDNPHVPNPWLNEDLVKSLRENLLQHEKSKTARKSVSPKLSPVISPRNSPRLLRRMLLSSNIPKQRRFTVAHTCFDVDNGTSAGRSPLDPMTSPGSGLILQANFVHSQRRESFLYRSDSDYDLSPKSMSRNSSIASDIHGDDLIVTPFAQVLASLRTVRNNFAALTNLQDRAPSKRSPMCNQPSINKATITEEAYQKLASETLEELDWCLDQLETLQTRHSVSEMASNKFKRMLNRELTHLSEMSRSGNQVSEYISNTFLDKQHEVEIPSPTQKEKEKKKRPMSQISGVKKLMHSSSLTNSCIPRFGVKTEQEDVLAKELEDVNKWGLHVFRIAELSGNRPLTVIMHTIFQERDLLKTFKIPVDTLITYLMTLEDHYHADVAYHNNIHAADVVQSTHVLLSTPALEAVFTDLEILAAIFASAIHDVDHPGVSNQFLINTNSELALMYNDSSVLENHHLAVGFKLLQEENCDIFQNLTKKQRQSLRKMAIDIVLATDMSKHMNLLADLKTMVETKKVTSSGVLLLDNYSDRIQVLQNMVHCADLSNPTKPLQLYRQWTDRIMEEFFRQGDRERERGMEISPMCDKHNASVEKSQVGFIDYIVHPLWETWADLVHPDAQDILDTLEDNREWYQSTIPQSPSPAPDDQEDGRQGQTEKFQFELTLEEDGESDTEKDSGSQVEEDTSCSDSKTLCTQDSESTEIPLDEQVEEEAVAEEESQPQTGVADDCCPDT",2
,"PDE4D3 (natural protein, UniProt P14270-1 1-672, looked up) MMHVNTFPFRRHSWICFDVDNGTSAGRSPLDPMTSPGSGLILQANFVHSQRRESFLYRSDSDYDLSPKSMSRNSSIASDIHGDDLIVTPFAQVLASLRTVRNNFAALTNLQDRAPSKRSPMCNQPSINKATITEEAYQKLASETLEELDWCLDQLETLQTRHSVSEMASNKFKRMLNRELTHLSEMSRSGNQVSEYISNTFLDKQHEVEIPSPTQKEKEKKKRPMSQISGVKKLMHSSSLTNSCIPRFGVKTEQEDVLAKELEDVNKWGLHVFRIAELSGNRPLTVIMHTIFQERDLLKTFKIPVDTLITYLMTLEDHYHADVAYHNNIHAADVVQSTHVLLSTPALEAVFTDLEILAAIFASAIHDVDHPGVSNQFLINTNSELALMYNDSSVLENHHLAVGFKLLQEENCDIFQNLTKKQRQSLRKMAIDIVLATDMSKHMNLLADLKTMVETKKVTSSGVLLLDNYSDRIQVLQNMVHCADLSNPTKPLQLYRQWTDRIMEEFFRQGDRERERGMEISPMCDKHNASVEKSQVGFIDYIVHPLWETWADLVHPDAQDILDTLEDNREWYQSTIPQSPSPAPDDQEDGRQGQTEKFQFELTLEEDGESDTEKDSGSQVEEDTSCSDSKTLCTQDSESTEIPLDEQVEEEAVAEEESQPQTGVADDCCPDT",2
,"PDE4D4 (natural protein, rat, UniProt P14270-5 1-803, looked up) MEAEGSSVPARAGSHEGSDSSGGAALKAPKHLWRHEQHHQYPLRQPQFRLLHPHHHLPPPPPPSPQPQLQPPPPPPLPPPPPPPGATRGRYASSGASRVRHRGYSDTERYLYCRAMDRTSYAVETGHRPGLKKSRMSWPSSFQGLRRFDVDNGTSAGRSPLDPMTSPGSGLILQANFVHSQRRESFLYRSDSDYDLSPKSMSRNSSIASDIHGDDLIVTPFAQVLASLRTVRNNFAALTNLQDRAPSKRSPMCNQPSINKATITEEAYQKLASETLEELDWCLDQLETLQTRHSVSEMASNKFKRMLNRELTHLSEMSRSGNQVSEYISNTFLDKQHEVEIPSPTQKEKEKKKRPMSQISGVKKLMHSSSLTNSCIPRFGVKTEQEDVLAKELEDVNKWGLHVFRIAELSGNRPLTVIMHTIFQERDLLKTFKIPVDTLITYLMTLEDHYHADVAYHNNIHAADVVQSTHVLLSTPALEAVFTDLEILAAIFASAIHDVDHPGVSNQFLINTNSELALMYNDSSVLENHHLAVGFKLLQEENCDIFQNLTKKQRQSLRKMAIDIVLATDMSKHMNLLADLKTMVETKKVTSSGVLLLDNYSDRIQVLQNMVHCADLSNPTKPLQLYRQWTDRIMEEFFRQGDRERERGMEISPMCDKHNASVEKSQVGFIDYIVHPLWETWADLVHPDAQDILDTLEDNREWYQSTIPQSPSPAPDDQEDGRQGQTEKFQFELTLEEDGESDTEKDSGSQVEEDTSCSDSKTLCTQDSESTEIPLDEQVEEEAVAEEESQPQTGVADDCCPDT",2
